Laboratory results: patent US20240209086A1 (PETMEDIX, published 2024)

B1: PMX180 (monospecific anti-canine CD3, canine IgG-B effector function deficient Fc) (antibody, V domains shown)
VH: ELTLQESGPGLVKPSQTLSLTCVVSGGSVTSNYYWNWIRQRPGRGLEWMGYWTGSTNYNPAFQGRISITADTAKKQFSLQLRSMTIEDTAVYYCARRGIPIFFDYWGQGTLVTVSS
VL: SYVLTQLPSKNVTLKQPAHITCGGDNIGSKSVHWYQQKLGQAPVLIIYYDSSRPTGIPERFSGANSGNTATLTISGALAEDEADYYCQVWDSSASVFGGGTHLTVL
B2: PMX181 (monospecific anti-canine CD3, canine IgG-B effector function deficient Fc) (antibody, V domains shown)
VH: ELTLQESGPGLVKPSQTLSLTCIVSGGSVTNNYYWTWIRQRPGRGLEWMGYWTGFTNYNPAFQGRISIIANTAKKQLSLQLSSLTTEDTAVYYCARRAIPTYFDYWGQGTLVTVSS
VL: SYVLTQLPSKNVTLKQPAHITCGGDNIGSRSVHWYQQKLGQAPVLIIYYDSSRPTGIPERFSGANSGNTATLTISGALAEDEADYYCQVWDSSASVFGGGTHLTVL
B3: PMX174 (monospecific anti-canine CD3, canine IgG-B effector function deficient Fc) (antibody)
heavy: EVQLVESGGDLVKAGVSLRLSCVASGFTFSNYHLNWVRQAPGKGPQWVASINSGGSSTYYADAVKGRFTISRDNAKNTLYLQMNSLRAEDTAVYYCASDHGSYRGMDYWGHGTSLFVSSASTTAPSVFPLAPSCGSTSGSTVALACLVSGYFPEPVTVSWNSGSLTSGVHTFPSVLQSSGLYSLSSMVTVPSSRWPSETFTCNVAHPASKTKVDKPVPKRENGRVPRPPDCPKCPAPESLGGPSVFIFPPKPKDTLLIARTPEVTCVVVDLGREDPEVQISWFVDGKQMQTAKTQPREEQFNGTYRVVSVLPIGHQDWLKGKQFTCKVNHIGLPSPIERTISKARGQAHQPSVYVLPPSREELSKNTVSLTCLIKDFFPPDIDVEWQSNGQQEPESKYRTTPPQLDEDGSYFLYSKLSVDKSRWQRGDTFICAVMHEALHNHYTQKSLSHSPGK
VL: SYVLTQLPSKNVTLKQPAHITCGGDNIGSKSVHWYQQKLGQAPVLIIYYDSSRPTGIPERFSGANSGNTATLTISGALAEDEADYYCQVWDSSAKAVFGGGTHLTVL
B4: PMX175 (monospecific anti-canine CD3, canine IgG-B effector function deficient Fc) (antibody, V domains shown)
VH: ELTLQESGPGLVKPSQTLSLTCVVSGGSVTSTYYWNWIRQRPGRGLEWMGYWTGTTNYNPAFQGRISITADTAKNQFSLQLSSMTTEDTAVYYCAREDLVTVGSGAFNYWGQGTLVTVSS
VL: SYVLTQLPSKNVTLKQPAHITCGGDNIGSKSVHWYQQKLGQAPVLIIYYDSSRPTGIPERFSGANSGNTATLTISGALAEDEADYYCQVWDSSATWVFGEGTQLTVL

target: canine CD3 on canine T cells (canine PBMC) (canine, UniProt P27597 22-202); test: cell-based or functional assay
Sequence (P27597 22-202 limits assumed, chain 1 of 3): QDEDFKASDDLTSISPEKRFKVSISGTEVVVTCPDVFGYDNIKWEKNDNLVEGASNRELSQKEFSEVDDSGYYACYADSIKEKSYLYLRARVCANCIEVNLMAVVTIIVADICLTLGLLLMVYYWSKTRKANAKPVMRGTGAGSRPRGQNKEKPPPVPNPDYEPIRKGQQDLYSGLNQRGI
Sequence (chain, as listed by the source limits assumed, chain 2 of 3): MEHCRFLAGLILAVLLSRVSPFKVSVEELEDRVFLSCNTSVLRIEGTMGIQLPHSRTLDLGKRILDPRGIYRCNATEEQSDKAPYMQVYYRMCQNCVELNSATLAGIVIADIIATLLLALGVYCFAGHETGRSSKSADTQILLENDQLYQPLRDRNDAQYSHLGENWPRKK
Sequence (chain, as listed by the source limits assumed, chain 3 of 3): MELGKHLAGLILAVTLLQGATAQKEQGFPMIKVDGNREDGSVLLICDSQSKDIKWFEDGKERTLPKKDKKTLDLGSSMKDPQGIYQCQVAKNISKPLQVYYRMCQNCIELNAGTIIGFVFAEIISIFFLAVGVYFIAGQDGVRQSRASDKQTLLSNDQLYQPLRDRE

In order of falling “CD25 Activation, Day 6, IS” value:
1. B4  14.5
2. B1  10.7
3. B2  10.6
4. B3  7.37

In order of rising “CD25 Activation, Day 6, PB” value:
1. B2  5.68
2. B1  8.6
3. B3  8.61
4. B4  8.76

In order of falling “CD25 Activation, Day 9, IS” value:
1. B1  13.9
2. B4  10
3. B2  9.09
4. B3  8.21

In order of rising “CD25 Activation, Day 9, PB” value:
1. B3  8.48
2. B4  9.46
3. B1  17
4. B2  23.9

In order of rising “IFNy Concentration pg/ml, Day 6, IS” value:
1. B3  17.4 pg/mL
2. B2  33.1 pg/mL
3. B4  51 pg/mL
4. B1  55.5 pg/mL

In order of falling “IFNy Concentration pg/ml, Day 9, IS” value:
1. B3  627 pg/mL
2. B1  318 pg/mL
3. B4  233 pg/mL
4. B2  118 pg/mL

In order of falling “IFNy Concentration pg/ml, Day 9, PB” value:
1. B2  1690 pg/mL
2. B1  773 pg/mL
3. B4  706 pg/mL
4. B3  591 pg/mL

In order of falling “Ki67 Proliferation, Day 6, IS” value:
1. B2  2.15
2. B4  2.03
3. B1  1.2
4. B3  0.95

In order of rising “Ki67 Proliferation, Day 6, PB” value:
1. B3  0.089
2. B1  0.21
3. B2  0.55
4. B4  0.59

In order of rising “Ki67 Proliferation, Day 9, IS” value:
1. B4  1
2. B3  1.03
3. B1  1.77
4. B2  2.69

In order of falling “Ki67 Proliferation, Day 9, PB” value:
1. B4  0.95
2. B2  0.7
3. B1  0.58
4. B3  0
